Experimental data as given in patent US20250059292A1 (JCR PHARMACEUTICALS, published 2025).
Positions count from the first letter of the chain named.

B1: mscFv3-GS3-hI2S (conjugate in which hI2S is bound to the C-terminus of mouse anti-mouse transferrin receptor single chain antibody mscFv 3 via the linker of … (scFv)
chain: EVQLVESGGGLVQPGNSLTLSCVASGFTFSNYGMHWIRQAPKKGLEWIAMIAYDSSKMNYADTVKGRFTISRDNSKNTLYLEMNSLRSEDTAMYYCAVPTAHYVVDVWGQGVSVTVSSGGGGSGGGGSGGGGSDIQMTQSPASLSASLEEIVTITCQASQDIGNWLAWYQQKPGKSPQLLIYGATSLADGVPSRFSGSRSGTQFSLKISRVQVEDIGIYYCLQAYNTPWTFGGGTKLELKRGGGGSGGGGSGGGGSSETQANSTTDALNVLLIIVDDLRPSLGCYGDKLVRSPNIDQLASHSLLFQNAFAQQAVCAPSRVSFLTGRRPDTTRLYDFNSYWRVHAGNFSTIPQYFKENGYVTMSVGKVFHPGISSNHTDDSPYSWSFPPYHPSSEKYENTKTCRGPDGELHANLLCPVDVLDVPEGTLPDKQSTEQAIQLLEKMKTSASPFFLAVGYHKPHIPFRYPKEFQKLYPLENITLAPDPEVPDGLPPVAYNPWMDIRQREDVQALNISVPYGPIPVDFQRKIRQSYFASVSYLDTQVGRLLSALDDLQLANSTIIAFTSDHGWALGEHGEWAKYSNFDVATHVPLIFYVPGRTASLPEAGEKLFPYLDPFDSASQLMEPGRQSMDLVELVSLFPTLAGLAGLQVPPRCPVPSFHVELCREGKNLLKHFRFRDLEEDPYLPGNPRELIAYSQYPRPSDIPQWNSDKPSLKDIKIMGYSIRTIDYRYTVWVGFNPDEFLANFSDIHAGELYFVDSDPLQDHNMYNDSQGGDLFQLLMP
notes: scFv-enzyme fusion, recombinant from CHO cells; also called mscFv 3-hI2S conjugate
B2: mscFv2-GS3-hI2S (conjugate in which hI2S is bound to the C-terminus of mouse anti-mTfRscFv antibody 2 via the linker of SEQ ID NO: 4) (scFv)
chain: B1 chain with Y182A, Y225A
notes: scFv-enzyme fusion, recombinant from CHO cells; also called mouse anti-mTfRscFv antibody 2-hI2S conjugate
B3: mscFv-GS3-hI2S (conjugate in which human iduronate-2-sulfatase is bound to the C-terminus of a mouse anti-mouse transferrin receptor single chain antibody via … (scFv)
chain: B1 chain with A52Y, A101S
notes: scFv-enzyme fusion, expressed as a recombinant protein in CHO cells and collected from the culture supernatant; also called mouse anti-mTfRscFv antibody-hI2S conjugate
B4: hI2S-mscFv2 (conjugate in which mouse anti-mTfRscFv antibody 2 is bound to the C-terminus of hI2S) (scFv)
chain: SETQANSTTDALNVLLIIVDDLRPSLGCYGDKLVRSPNIDQLASHSLLFQNAFAQQAVCAPSRVSFLTGRRPDTTRLYDFNSYWRVHAGNFSTIPQYFKENGYVTMSVGKVFHPGISSNHTDDSPYSWSFPPYHPSSEKYENTKTCRGPDGELHANLLCPVDVLDVPEGTLPDKQSTEQAIQLLEKMKTSASPFFLAVGYHKPHIPFRYPKEFQKLYPLENITLAPDPEVPDGLPPVAYNPWMDIRQREDVQALNISVPYGPIPVDFQRKIRQSYFASVSYLDTQVGRLLSALDDLQLANSTIIAFTSDHGWALGEHGEWAKYSNFDVATHVPLIFYVPGRTASLPEAGEKLFPYLDPFDSASQLMEPGRQSMDLVELVSLFPTLAGLAGLQVPPRCPVPSFHVELCREGKNLLKHFRFRDLEEDPYLPGNPRELIAYSQYPRPSDIPQWNSDKPSLKDIKIMGYSIRTIDYRYTVWVGFNPDEFLANFSDIHAGELYFVDSDPLQDHNMYNDSQGGDLFQLLMPEVQLVESGGGLVQPGNSLTLSCVASGFTFSNYGMHWIRQAPKKGLEWIAMIAYDSSKMNYADTVKGRFTISRDNSKNTLYLEMNSLRSEDTAMYYCAVPTAHYVVDVWGQGVSVTVSSGGGGSGGGGSGGGGSDIQMTQSPASLSASLEEIVTITCQASQDIGNWLAWYQQKPGKSPQLLIAGATSLADGVPSRFSGSRSGTQFSLKISRVQVEDIGIYYCLQAANTPWTFGGGTKLELKR
notes: Enzyme-scFv fusion, recombinant from CHO cells

Key:
[1] = target: T1, mouse transferrin receptor extracellular domain (position 87 to position 763 of SEQ ID NO: 39) (mouse, UniProt Q62351 87-763); assay: ELISA: mouse TfR extracellular domain coated on the plate, detected with anti-I2S monoclonal antibody and HRP-labeled secondary antibody
T1 construct: Coated on the ELISA plate at 10 ug/mL; also called mouse TfR; mTfR
T1 sequence (Q62351 87-763): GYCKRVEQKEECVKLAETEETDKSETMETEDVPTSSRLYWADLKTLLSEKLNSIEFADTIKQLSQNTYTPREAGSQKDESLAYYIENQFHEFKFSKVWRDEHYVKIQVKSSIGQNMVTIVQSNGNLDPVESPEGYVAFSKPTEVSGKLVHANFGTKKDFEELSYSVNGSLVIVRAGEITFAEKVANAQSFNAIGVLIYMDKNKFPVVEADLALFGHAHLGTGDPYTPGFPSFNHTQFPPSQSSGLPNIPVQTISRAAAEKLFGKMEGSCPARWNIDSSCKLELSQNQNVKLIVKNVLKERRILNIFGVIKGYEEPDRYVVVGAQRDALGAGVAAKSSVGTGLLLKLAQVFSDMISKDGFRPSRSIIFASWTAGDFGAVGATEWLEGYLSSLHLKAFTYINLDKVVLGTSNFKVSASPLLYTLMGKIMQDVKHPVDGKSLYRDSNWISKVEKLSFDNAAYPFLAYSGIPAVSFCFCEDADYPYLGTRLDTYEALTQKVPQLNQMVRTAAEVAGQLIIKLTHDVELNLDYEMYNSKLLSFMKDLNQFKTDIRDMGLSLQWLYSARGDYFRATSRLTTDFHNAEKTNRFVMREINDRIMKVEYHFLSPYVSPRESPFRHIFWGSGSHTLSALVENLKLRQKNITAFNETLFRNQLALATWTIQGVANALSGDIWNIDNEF
Method: The recombinant proteins of mscFv3-GS3-hI2S obtained by an ordinary method using CHO cells were measured for their binding activity to mouse transferrin receptor by the ELISA method. The ELISA method was generally performed in the following manner. To each well of a 96-well microtiter plate (Nunc), 100 μL of a mouse transferrin receptor extracellular domain having an amino acid sequence from position 87 to position 763 of an amino acid sequence represented by SEQ ID NO: 39 diluted with 0.05 M bicarbonate buffer (pH 9.6) to a concentration of 10 μg/mL was added, and the plate was allowed to stand at room temperature for at least 1 hour to adsorb the antibody to the plate. Then, 300 μL of TBS containing 1% BSA and 0.05% Tween20 was added to each well, and the plate was allowed to stand at room temperature for 1 hour. Each well was washed three times with TBS containing 0.05% Tween20 (TBS-T). Then, a solution containing mscFv3-GS3-hI2S was diluted using TBS containing 0.1% BSA and 0.05% Tween20 to a concentration of mscFv3-GS3-hI2S of 200, 66.7, 22.2, 7.41, 2.47, 0.82, and 0.27 nM, and 100 μL of the diluted solution was added to each well. The plate was allowed to stand at room temperature for at least 1 hour. […] Then, 100 μL of a stop solution (1 N hydrochloride) was added to each well, and the absorbance at 450 nm for each well was measured using a plate reader (MOLECULAR DEVICES).

[2] = target: T1, mouse transferrin receptor …; assay: ELISA: mouse TfR extracellular domain coated on the plate, detected with anti-hI2S monoclonal antibody and HRP-labeled secondary antibody
Method: The binding activities of the obtained three types of proteins, mscFv-GS3-hI2S, mscFv2-GS3-hI2S, and hI2S-mscFv2, to the mouse TfR receptor were measured by the ELISA method. The ELISA method was generally performed in the following manner. To each well of a 96-well microtiter plate (Nunc), 100 μL of a mouse transferrin receptor extracellular domain having an amino acid sequence from position 87 to position 763 of an amino acid sequence represented by SEQ ID NO: 39 diluted with 0.05 M bicarbonate buffer (pH 9.6) to a concentration of 10 μg/mL was added, and the plate was allowed to stand at room temperature for at least 1 hour to adsorb the antibody to the plate. Then, 300 μL of TBS containing 1% BSA and 0.05% Tween20 was added to each well, and the plate was allowed to stand at room temperature for 1 hour. Each well was washed three times with TBS containing 0.05% Tween20 (TBS-T), followed by dilution with TBS containing 0.1% BSA and 0.05% Tween20 to 300, 100, 33.33, 11.11, 3.70, 1.23, 0.41, or 0.14 nM for mscFv-GS3-hI2S, 600, 200, 66.67, 22.22, 7.41, 2.47, 0.82, or 0.27 nM for mscFv2-GS3-hI2S, and 1200, 400, 133.33, 44.44, 14.81, 4.94, 1.65, or 0.55 nM for hI2S-mscFv2, and 100 μL of each thereof was added to each well. The plate was allowed to stand at room temperature for at least 1 hour. After the plate was washed three times with TBS-T, anti-hI2S monoclonal antibodies were diluted to 0.5 μg/mL with TBS containing 0.1% BSA and 0.05% Tween20, 100 μL thereof was added to each well, and the plate was allowed to stand at room temperature for at least 1 hour. The plate was washed three times with the TBS-T, then 100 μL of an HRP-labeled anti-human IgG polyclonal antibody (Bethyl) solution diluted to 50 ng/mL with TBS containing 0.1% BSA and 0.05% Tween20 was added to each well, and the plate was allowed to stand at room temperature for at least 1 hour. […] Then, 100 μL of a stop solution (1 N hydrochloride) was added to each well, and the absorbance at 450 nm for each well was measured using a plate reader (SpectraMax iD3, MOLECULAR DEVICES).

| Binder | EC50 [1] | EC50 [2] |
| --- | --- | --- |
| B1 | 4.4 nM | – |
| B2 | – | 13.2 nM |
| B3 | – | 2.4 nM |
| B4 | – | 96.7 nM |
